Publication PMC8586251, “Cryo-EM structure provides insights into the dimer arrangement of the O-linked β-N-acetylglucosamine transferase OGT” (Nature Communications, 2021)

What was measured:
[1] = target: O-GlcNAc transferase OGT, full length, isoform 3, double mutant (W208A, I211A) (UniProt O15294)
[2] = target: the molecule itself; assay: SEC-MALS; SEC-MALLS; Superdex S200 10/300 GL in 20 mM HEPES 7.5, 200 mM NaCl, room temperature; 100 µl of 3 mg/ml OGT injected, 0.5 ml/min; dimer against monomer

relative second order rate constant of glycosyl transfer to TAB1 protein (fluorescent OGT activity assay), against wildtype OGT (% lower than wildtype) [1]	Molecule	stoichiometry N [2]
50	O-GlcNAc transferase OGT, full length, isoform 3, double mutant (W208A, I211A) (from UniProt O15294-1 1-1046) (enzyme)	–
–	O-GlcNAc transferase OGT, full length, isoform 3, wildtype (construct for SEC-MALLS) (enzyme, UniProt O15294-1 1-1046, looked up, also called OGT wildtype; source: E. coli BL21-Gold(DE3), purified (HisTrap, Q Sepharose, Superdex 200)) MASSVGNVADSTEPTKRMLSFQGLAELAHREYQAGDFEAAERHCMQLWRQEPDNTGVLLLLSSIHFQCRRLDRSAHFSTLAIKQNPLLAEAYSNLGNVYKERGQLQEAIEHYRHALRLKPDFIDGYINLAAALVAAGDMEGAVQAYVSALQYNPDLYCVRSDLGNLLKALGRLEEAKACYLKAIETQPNFAVAWSNLGCVFNAQGEIWLAIHHFEKAVTLDPNFLDAYINLGNVLKEARIFDRAVAAYLRALSLSPNHAVVHGNLACVYYEQGLIDLAIDTYRRAIELQPHFPDAYCNLANALKEKGSVAEAEDCYNTALRLCPTHADSLNNLANIKREQGNIEEAVRLYRKALEVFPEFAAAHSNLASVLQQQGKLQEALMHYKEAIRISPTFADAYSNMGNTLKEMQDVQGALQCYTRAIQINPAFADAHSNLASIHKDSGNIPEAIASYRTALKLKPDFPDAYCNLAHCLQIVCDWTDYDERMKKLVSIVADQLEKNRLPSVHPHHSMLYPLSHGFRKAIAERHGNLCLDKINVLHKPPYEHPKDLKLSDGRLRVGYVSSDFGNHPTSHLMQSIPGMHNPDKFEVFCYALSPDDGTNFRVKVMAEANHFIDLSQIPCNGKAADRIHQDGIHILVNMNGYTKGARNELFALRPAPIQAMWLGYPGTSGALFMDYIITDQETSPAEVAEQYSEKLAYMPHTFFIGDHANMFPHLKKKAVIDFKSNGHIYDNRIVLNGIDLKAFLDSLPDVKIVKMKCPDGGDNADSSNTALNMPVIPMNTIAEAVIEMINRGQIQITINGFSISNGLATTQINNKAATGEEVPRTIIVTTRSQYGLPEDAIVYCNFNQLYKIDPSTLQMWANILKRVPNSVLWLLRFPAVGEPNIQQYAQNMGLPQNRIIFSPVAPKEEHVRRGQLADVCLDTPLCNGHTTGMDVLWAGTPMVTMPGETLASRVAASQLTCLGCLELIAKNRQEYEDIAVKLGTDLEYLKKVRGKVWKQRISSPLFNTKQYTMELERLYLQMWEHYAAGNKPDHMIKPVEVTESA	2
–	O-GlcNAc transferase OGT, full length, isoform 3, E215A (enzyme, UniProt O15294-1 1-1046, looked up, O-GlcNAc transferase OGT, isoform 3, UniProt O15294-1, full length, site-directed mutant; source: E. coli BL21-Gold(DE3), purified (HisTrap, Q Sepharose, Superdex 200)) MASSVGNVADSTEPTKRMLSFQGLAELAHREYQAGDFEAAERHCMQLWRQEPDNTGVLLLLSSIHFQCRRLDRSAHFSTLAIKQNPLLAEAYSNLGNVYKERGQLQEAIEHYRHALRLKPDFIDGYINLAAALVAAGDMEGAVQAYVSALQYNPDLYCVRSDLGNLLKALGRLEEAKACYLKAIETQPNFAVAWSNLGCVFNAQGEIWLAIHHFAKAVTLDPNFLDAYINLGNVLKEARIFDRAVAAYLRALSLSPNHAVVHGNLACVYYEQGLIDLAIDTYRRAIELQPHFPDAYCNLANALKEKGSVAEAEDCYNTALRLCPTHADSLNNLANIKREQGNIEEAVRLYRKALEVFPEFAAAHSNLASVLQQQGKLQEALMHYKEAIRISPTFADAYSNMGNTLKEMQDVQGALQCYTRAIQINPAFADAHSNLASIHKDSGNIPEAIASYRTALKLKPDFPDAYCNLAHCLQIVCDWTDYDERMKKLVSIVADQLEKNRLPSVHPHHSMLYPLSHGFRKAIAERHGNLCLDKINVLHKPPYEHPKDLKLSDGRLRVGYVSSDFGNHPTSHLMQSIPGMHNPDKFEVFCYALSPDDGTNFRVKVMAEANHFIDLSQIPCNGKAADRIHQDGIHILVNMNGYTKGARNELFALRPAPIQAMWLGYPGTSGALFMDYIITDQETSPAEVAEQYSEKLAYMPHTFFIGDHANMFPHLKKKAVIDFKSNGHIYDNRIVLNGIDLKAFLDSLPDVKIVKMKCPDGGDNADSSNTALNMPVIPMNTIAEAVIEMINRGQIQITINGFSISNGLATTQINNKAATGEEVPRTIIVTTRSQYGLPEDAIVYCNFNQLYKIDPSTLQMWANILKRVPNSVLWLLRFPAVGEPNIQQYAQNMGLPQNRIIFSPVAPKEEHVRRGQLADVCLDTPLCNGHTTGMDVLWAGTPMVTMPGETLASRVAASQLTCLGCLELIAKNRQEYEDIAVKLGTDLEYLKKVRGKVWKQRISSPLFNTKQYTMELERLYLQMWEHYAAGNKPDHMIKPVEVTESA	2
–	O-GlcNAc transferase OGT, full length, isoform 3, E206A (enzyme, UniProt O15294-1 1-1046, looked up, O-GlcNAc transferase OGT, isoform 3, UniProt O15294-1, full length, site-directed mutant; source: E. coli BL21-Gold(DE3), purified (HisTrap, Q Sepharose, Superdex 200)) MASSVGNVADSTEPTKRMLSFQGLAELAHREYQAGDFEAAERHCMQLWRQEPDNTGVLLLLSSIHFQCRRLDRSAHFSTLAIKQNPLLAEAYSNLGNVYKERGQLQEAIEHYRHALRLKPDFIDGYINLAAALVAAGDMEGAVQAYVSALQYNPDLYCVRSDLGNLLKALGRLEEAKACYLKAIETQPNFAVAWSNLGCVFNAQGAIWLAIHHFEKAVTLDPNFLDAYINLGNVLKEARIFDRAVAAYLRALSLSPNHAVVHGNLACVYYEQGLIDLAIDTYRRAIELQPHFPDAYCNLANALKEKGSVAEAEDCYNTALRLCPTHADSLNNLANIKREQGNIEEAVRLYRKALEVFPEFAAAHSNLASVLQQQGKLQEALMHYKEAIRISPTFADAYSNMGNTLKEMQDVQGALQCYTRAIQINPAFADAHSNLASIHKDSGNIPEAIASYRTALKLKPDFPDAYCNLAHCLQIVCDWTDYDERMKKLVSIVADQLEKNRLPSVHPHHSMLYPLSHGFRKAIAERHGNLCLDKINVLHKPPYEHPKDLKLSDGRLRVGYVSSDFGNHPTSHLMQSIPGMHNPDKFEVFCYALSPDDGTNFRVKVMAEANHFIDLSQIPCNGKAADRIHQDGIHILVNMNGYTKGARNELFALRPAPIQAMWLGYPGTSGALFMDYIITDQETSPAEVAEQYSEKLAYMPHTFFIGDHANMFPHLKKKAVIDFKSNGHIYDNRIVLNGIDLKAFLDSLPDVKIVKMKCPDGGDNADSSNTALNMPVIPMNTIAEAVIEMINRGQIQITINGFSISNGLATTQINNKAATGEEVPRTIIVTTRSQYGLPEDAIVYCNFNQLYKIDPSTLQMWANILKRVPNSVLWLLRFPAVGEPNIQQYAQNMGLPQNRIIFSPVAPKEEHVRRGQLADVCLDTPLCNGHTTGMDVLWAGTPMVTMPGETLASRVAASQLTCLGCLELIAKNRQEYEDIAVKLGTDLEYLKKVRGKVWKQRISSPLFNTKQYTMELERLYLQMWEHYAAGNKPDHMIKPVEVTESA	2
